The results in this text go back to article doi:10.1101/2020.10.21.349480 (2020).

Assay [1] addresses T1, mouse collagen I (mouse, UniProt P11087 152-1207; Q01149 86-1125). Description: BLI; analysis by molarity. Background: BLI is a label-free optical method that tracks binding on a fibre tip over time.
Assay [2] has as its target T2, rat collagen III (rat, UniProt P13941 155-1218).
T2 chain: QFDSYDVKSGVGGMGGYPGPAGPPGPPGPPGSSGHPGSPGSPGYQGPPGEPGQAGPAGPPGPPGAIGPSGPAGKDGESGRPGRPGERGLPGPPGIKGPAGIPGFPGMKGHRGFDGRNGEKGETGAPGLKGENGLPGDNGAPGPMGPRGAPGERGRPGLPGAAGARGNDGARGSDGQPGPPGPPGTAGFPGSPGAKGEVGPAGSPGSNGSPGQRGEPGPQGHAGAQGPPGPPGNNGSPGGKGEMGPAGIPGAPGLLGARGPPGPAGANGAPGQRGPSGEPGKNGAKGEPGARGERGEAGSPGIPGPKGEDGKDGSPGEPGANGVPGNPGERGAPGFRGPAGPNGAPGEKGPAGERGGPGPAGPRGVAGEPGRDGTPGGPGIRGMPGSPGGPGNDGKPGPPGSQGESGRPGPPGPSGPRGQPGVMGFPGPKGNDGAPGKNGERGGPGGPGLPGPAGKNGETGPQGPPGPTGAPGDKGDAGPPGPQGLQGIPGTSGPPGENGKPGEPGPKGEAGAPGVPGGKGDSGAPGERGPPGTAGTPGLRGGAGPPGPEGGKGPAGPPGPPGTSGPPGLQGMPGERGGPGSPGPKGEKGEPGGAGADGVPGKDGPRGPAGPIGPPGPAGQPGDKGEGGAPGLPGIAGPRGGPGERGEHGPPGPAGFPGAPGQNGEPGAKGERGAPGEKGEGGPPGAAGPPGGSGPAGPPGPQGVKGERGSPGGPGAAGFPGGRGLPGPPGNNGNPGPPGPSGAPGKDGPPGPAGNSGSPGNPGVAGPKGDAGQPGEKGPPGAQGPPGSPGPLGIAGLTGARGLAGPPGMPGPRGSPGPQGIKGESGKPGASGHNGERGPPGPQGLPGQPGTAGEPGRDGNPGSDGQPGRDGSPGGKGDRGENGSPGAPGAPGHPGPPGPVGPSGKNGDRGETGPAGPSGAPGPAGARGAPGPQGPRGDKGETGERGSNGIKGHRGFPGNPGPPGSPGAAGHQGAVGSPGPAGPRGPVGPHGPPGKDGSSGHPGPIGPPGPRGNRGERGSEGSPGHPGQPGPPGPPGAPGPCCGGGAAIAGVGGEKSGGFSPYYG
Kind of assay: BLI; analysis by molarity.

The target of assay [3] is T3, rat collagen I (rat, UniProt P02454 152-1207; P02466 86-1125). Description: BLI; analysis by molarity.
Assay [4] has as its target T4, human collagen III (human, UniProt P02461 154-1221).
T4 chain: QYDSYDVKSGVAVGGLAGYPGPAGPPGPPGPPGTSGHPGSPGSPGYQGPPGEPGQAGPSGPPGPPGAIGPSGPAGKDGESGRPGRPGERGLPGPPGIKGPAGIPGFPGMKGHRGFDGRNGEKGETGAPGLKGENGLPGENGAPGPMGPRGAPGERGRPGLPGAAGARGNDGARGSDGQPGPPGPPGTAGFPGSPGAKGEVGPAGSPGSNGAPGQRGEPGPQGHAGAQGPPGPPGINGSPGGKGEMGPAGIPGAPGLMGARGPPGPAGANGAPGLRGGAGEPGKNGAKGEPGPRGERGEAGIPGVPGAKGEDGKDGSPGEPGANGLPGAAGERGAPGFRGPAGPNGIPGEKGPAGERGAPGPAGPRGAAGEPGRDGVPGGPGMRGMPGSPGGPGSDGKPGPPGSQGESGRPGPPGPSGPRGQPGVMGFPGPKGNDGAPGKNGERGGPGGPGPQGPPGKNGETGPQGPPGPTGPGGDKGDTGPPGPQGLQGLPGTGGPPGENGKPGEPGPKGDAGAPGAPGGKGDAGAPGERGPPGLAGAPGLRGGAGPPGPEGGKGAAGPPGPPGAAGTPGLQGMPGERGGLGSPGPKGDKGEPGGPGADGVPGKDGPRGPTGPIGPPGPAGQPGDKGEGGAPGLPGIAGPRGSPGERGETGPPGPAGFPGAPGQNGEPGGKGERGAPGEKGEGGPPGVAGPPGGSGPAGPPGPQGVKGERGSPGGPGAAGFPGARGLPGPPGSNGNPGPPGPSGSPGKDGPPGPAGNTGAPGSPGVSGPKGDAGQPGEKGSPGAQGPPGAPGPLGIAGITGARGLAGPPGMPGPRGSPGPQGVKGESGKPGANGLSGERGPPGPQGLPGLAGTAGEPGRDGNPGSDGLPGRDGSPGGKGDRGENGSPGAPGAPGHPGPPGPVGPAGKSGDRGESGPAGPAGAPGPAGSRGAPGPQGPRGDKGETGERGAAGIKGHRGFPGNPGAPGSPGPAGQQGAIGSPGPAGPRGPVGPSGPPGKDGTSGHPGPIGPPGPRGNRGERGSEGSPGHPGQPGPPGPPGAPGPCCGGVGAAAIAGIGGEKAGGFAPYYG
Kind of assay: BLI; analysis by molarity.

Assay [5] concerns the target T5, human collagen I (human, UniProt P02452 162-1218; P08123 80-1119). Kind of assay: BLI; analysis by molarity.
The target of assay [6] is T1, mouse collagen I. Kind of assay: BLI; analysis by binding sites/mol.
Assay [7] addresses T2, rat collagen III. Description: BLI; analysis by binding sites/mol.
Assay [8] has as its target T3, rat collagen I. Description: BLI; analysis by binding sites/mol.
In assay [9] the target is T4, human collagen III. Description: BLI; analysis by binding sites/mol.
For assay [10], the target named is T5, human collagen I. Kind of assay: BLI; analysis by binding sites/mol.
The target in assay [11] is T1, mouse collagen I. Description: BLI; apparent KD, analysis by binding sites/mol.
In assay [12] the target is T2, rat collagen III. Kind of assay: BLI; apparent KD, analysis by binding sites/mol.
The target of assay [13] is T3, rat collagen I. Description: BLI; apparent KD, analysis by binding sites/mol.
Assay [14] addresses T4, human collagen III. Description: BLI; apparent KD, analysis by binding sites/mol.
Assay [15] deals with T5, human collagen I. Description: BLI; apparent KD, analysis by binding sites/mol.
Assay [16] concerns the target T1, mouse collagen I. Kind of assay: BLI; apparent KD (avidity), analysis by molarity.
Assay [17] concerns the target T2, rat collagen III. Description: BLI; apparent KD (avidity), analysis by molarity.
The target in assay [18] is T3, rat collagen I. Kind of assay: BLI; apparent KD (avidity), analysis by molarity.
The target of assay [19] is T4, human collagen III. Kind of assay: BLI; apparent KD (avidity), analysis by molarity.
The target of assay [20] is T5, human collagen I. Kind of assay: BLI; apparent KD (avidity), analysis by molarity.

T5 sequence (P02452 162-1218, chain 1 of 2): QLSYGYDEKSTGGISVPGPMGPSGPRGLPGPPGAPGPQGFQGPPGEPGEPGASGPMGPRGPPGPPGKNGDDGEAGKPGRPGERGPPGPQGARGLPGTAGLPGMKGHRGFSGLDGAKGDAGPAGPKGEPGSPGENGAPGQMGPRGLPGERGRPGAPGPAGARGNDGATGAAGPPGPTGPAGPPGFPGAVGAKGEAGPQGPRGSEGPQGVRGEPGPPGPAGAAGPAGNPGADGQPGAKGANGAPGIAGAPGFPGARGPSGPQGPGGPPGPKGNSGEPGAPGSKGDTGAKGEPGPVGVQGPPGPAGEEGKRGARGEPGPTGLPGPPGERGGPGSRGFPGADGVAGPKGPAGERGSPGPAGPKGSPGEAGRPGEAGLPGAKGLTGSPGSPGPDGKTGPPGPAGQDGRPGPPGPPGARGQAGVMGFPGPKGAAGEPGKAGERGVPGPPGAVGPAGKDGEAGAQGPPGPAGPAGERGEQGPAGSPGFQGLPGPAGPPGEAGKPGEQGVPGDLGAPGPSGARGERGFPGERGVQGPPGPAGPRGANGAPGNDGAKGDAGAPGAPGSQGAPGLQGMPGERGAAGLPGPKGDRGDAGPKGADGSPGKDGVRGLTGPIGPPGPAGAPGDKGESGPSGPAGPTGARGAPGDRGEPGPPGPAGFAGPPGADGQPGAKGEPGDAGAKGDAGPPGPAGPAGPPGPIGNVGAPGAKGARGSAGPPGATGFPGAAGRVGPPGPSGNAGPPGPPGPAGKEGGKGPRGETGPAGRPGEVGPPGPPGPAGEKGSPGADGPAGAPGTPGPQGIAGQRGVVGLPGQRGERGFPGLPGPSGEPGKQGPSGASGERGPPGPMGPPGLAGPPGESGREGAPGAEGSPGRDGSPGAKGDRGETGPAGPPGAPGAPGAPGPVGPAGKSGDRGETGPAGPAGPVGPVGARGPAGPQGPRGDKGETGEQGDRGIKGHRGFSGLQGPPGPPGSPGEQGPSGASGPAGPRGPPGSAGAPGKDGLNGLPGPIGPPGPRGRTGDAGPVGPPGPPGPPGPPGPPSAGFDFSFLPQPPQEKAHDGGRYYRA
T5 sequence (P08123 80-1119, chain 2 of 2): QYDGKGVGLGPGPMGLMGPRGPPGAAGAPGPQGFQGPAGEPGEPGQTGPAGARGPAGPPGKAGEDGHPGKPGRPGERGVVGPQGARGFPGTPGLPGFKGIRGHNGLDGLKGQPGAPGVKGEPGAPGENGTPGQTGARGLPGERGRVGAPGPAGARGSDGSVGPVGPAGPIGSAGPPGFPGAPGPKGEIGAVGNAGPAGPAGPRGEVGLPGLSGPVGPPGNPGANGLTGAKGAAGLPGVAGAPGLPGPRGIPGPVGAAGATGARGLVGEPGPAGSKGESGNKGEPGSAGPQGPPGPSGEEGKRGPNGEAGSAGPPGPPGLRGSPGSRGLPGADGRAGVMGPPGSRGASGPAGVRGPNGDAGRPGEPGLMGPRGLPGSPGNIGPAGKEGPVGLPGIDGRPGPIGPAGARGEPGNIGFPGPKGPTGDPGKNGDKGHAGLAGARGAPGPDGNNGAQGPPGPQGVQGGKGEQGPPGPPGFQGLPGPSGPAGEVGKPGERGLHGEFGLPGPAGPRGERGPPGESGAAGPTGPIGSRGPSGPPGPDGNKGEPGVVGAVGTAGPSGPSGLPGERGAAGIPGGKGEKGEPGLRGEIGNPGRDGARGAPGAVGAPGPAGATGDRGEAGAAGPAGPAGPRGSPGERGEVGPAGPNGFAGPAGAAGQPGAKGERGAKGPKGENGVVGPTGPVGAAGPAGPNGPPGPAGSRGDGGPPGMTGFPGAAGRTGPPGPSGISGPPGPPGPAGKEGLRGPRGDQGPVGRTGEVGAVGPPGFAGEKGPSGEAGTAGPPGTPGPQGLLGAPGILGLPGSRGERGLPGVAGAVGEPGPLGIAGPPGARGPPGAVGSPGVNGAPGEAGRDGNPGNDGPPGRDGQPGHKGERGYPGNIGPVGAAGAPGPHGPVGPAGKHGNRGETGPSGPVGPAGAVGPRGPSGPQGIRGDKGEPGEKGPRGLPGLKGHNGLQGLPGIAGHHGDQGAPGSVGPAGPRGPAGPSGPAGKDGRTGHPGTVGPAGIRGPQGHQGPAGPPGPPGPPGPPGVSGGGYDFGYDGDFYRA
T3 sequence (P02454 152-1207, chain 1 of 2): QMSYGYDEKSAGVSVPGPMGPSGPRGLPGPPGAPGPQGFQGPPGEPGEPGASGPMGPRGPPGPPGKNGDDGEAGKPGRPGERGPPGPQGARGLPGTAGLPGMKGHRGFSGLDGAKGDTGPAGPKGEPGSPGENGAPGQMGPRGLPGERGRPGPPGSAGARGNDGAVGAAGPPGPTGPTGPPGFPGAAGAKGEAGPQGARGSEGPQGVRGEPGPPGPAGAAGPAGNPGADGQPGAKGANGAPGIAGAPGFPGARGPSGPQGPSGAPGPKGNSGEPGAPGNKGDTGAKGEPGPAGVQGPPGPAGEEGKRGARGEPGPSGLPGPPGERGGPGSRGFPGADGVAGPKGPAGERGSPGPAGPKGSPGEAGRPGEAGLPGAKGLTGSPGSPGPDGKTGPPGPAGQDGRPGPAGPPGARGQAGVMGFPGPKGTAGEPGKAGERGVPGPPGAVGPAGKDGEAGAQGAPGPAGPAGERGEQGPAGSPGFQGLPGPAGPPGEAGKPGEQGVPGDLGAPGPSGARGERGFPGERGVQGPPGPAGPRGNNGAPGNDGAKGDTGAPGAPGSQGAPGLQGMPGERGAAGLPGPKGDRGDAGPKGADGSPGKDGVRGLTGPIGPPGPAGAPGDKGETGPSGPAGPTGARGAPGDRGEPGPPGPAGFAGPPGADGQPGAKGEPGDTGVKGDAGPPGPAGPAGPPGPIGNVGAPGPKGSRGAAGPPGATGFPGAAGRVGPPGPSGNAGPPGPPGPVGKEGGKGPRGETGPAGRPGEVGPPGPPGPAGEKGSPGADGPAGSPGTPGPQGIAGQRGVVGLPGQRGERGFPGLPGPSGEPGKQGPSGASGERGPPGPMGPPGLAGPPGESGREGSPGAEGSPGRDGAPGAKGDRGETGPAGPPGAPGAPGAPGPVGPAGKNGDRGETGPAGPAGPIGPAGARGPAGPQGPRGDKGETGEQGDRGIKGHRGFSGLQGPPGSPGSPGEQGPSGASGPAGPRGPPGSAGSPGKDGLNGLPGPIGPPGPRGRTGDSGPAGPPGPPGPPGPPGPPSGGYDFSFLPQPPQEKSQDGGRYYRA
T3 sequence (P02466 86-1125, chain 2 of 2): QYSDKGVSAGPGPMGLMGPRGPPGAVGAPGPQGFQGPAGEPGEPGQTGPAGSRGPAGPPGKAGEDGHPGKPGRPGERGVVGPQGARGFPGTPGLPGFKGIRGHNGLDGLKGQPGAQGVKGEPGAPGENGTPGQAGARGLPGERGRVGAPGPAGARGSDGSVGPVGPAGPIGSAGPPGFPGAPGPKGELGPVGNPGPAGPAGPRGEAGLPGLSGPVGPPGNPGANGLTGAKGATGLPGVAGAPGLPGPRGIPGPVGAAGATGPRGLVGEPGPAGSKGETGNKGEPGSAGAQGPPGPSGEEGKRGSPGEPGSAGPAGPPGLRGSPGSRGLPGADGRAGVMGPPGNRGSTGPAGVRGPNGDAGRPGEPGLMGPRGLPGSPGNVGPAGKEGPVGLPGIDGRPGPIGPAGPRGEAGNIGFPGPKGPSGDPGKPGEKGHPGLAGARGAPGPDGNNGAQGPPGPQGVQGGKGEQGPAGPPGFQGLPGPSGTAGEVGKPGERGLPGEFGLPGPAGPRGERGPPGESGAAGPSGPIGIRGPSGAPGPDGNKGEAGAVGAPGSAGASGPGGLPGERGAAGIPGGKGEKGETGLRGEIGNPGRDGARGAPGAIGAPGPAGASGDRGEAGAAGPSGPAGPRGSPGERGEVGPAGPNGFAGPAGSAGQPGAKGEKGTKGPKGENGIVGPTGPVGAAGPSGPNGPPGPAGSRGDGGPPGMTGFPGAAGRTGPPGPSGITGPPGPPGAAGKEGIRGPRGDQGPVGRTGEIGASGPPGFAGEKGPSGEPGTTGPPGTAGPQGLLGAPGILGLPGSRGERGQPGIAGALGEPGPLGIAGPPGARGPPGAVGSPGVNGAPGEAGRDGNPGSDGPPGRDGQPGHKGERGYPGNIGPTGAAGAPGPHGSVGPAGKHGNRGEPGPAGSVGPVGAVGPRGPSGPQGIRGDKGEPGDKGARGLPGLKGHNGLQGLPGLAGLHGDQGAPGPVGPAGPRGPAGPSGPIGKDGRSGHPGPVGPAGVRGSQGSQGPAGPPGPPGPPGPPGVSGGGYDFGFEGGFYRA

B1: NC410, LAIR-2 human IgG1 Fc fusion protein (Fc fusion)
chain: QEGALPRPSISAEPGTVISPGSHVTFMCRGPVGVQTFRLEREDRAKYKDSYNVFRLGPSESEARFHIDSVSEGNAGLYRCLYYKPPGWSEHSDFLELLVKESSGGPDSPDTEPGSSAGTVPGTEASGFDAP
Regarding B1, the koff with mouse collagen I [1] stood at 0.000194 s⁻¹; with rat collagen III [2], 0.000433 s⁻¹; in the assay with rat collagen I [3], 0.000241 s⁻¹; in the assay with human collagen III [4], 0.000241 s⁻¹; with human collagen I [5] it was 0.000186 s⁻¹; with mouse collagen I [6] it was 0.000194 s⁻¹. Besides, the koff with rat collagen III [7] was 0.000432 s⁻¹; with rat collagen I [8], 0.000241 s⁻¹; with human collagen III [9] it was 0.000241 s⁻¹; with human collagen I [10], 0.000184 s⁻¹. The Kd is 12.5 nM with mouse collagen I [11]; 115 nM with rat collagen III [12]; 3.74 nM with rat collagen I [13]; 47 nM with human collagen III [14]; 17.2 nM in the assay with human collagen I [15]; 0.0918 nM in the assay with mouse collagen I [16]. Moreover, the Kd stood at 0.878 nM in the assay with rat collagen III [17], 0.0387 nM in the assay with rat collagen I [18], 0.51 nM with human collagen III [19] and 0.126 nM with human collagen I [20].

Usually koff stands for a measure of how fast the partners let go of each other. The low end stands for a long-lived complex, the high end for a short-lived complex.
